Test results reported in the nanobody polyreactivity screen of Harvey et al. (2022).

Experiment: yeast display, Sf9 membrane polyspecificity reagent, FACS + sequencing; frameworks hold sequencing errors
Summary of the method: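 Galactose induction of a Saccharomyces cerevisiae BJ5465 synthetic nanobody display library ran 36–48 hours. The cells were then stained for 1 hour at 4 °C with 10% biotinylated, detergent-solubilized Sf9 membrane reagent, pulled down on streptavidin microbeads and FACS-sorted into low and high (top ~1%) gates on expression and reagent-binding fluorescence. Labels for polyreactivity follow the gate of origin.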

Sequence	polyreactivity (PSR sort gate)
HVQLVESGGGLVQAGGSLRLSCAASGSIYHIYSMGRYRQAPGKERELVAAISFSGGSTYYADSVKGRFTISRDNAKNTVYLQMNSLKPEDNAVYYCAADVYWLPYYYWGQGTLVTVSS	high polyreactivity
QVHLQESGDGLLQAVGSLRLSCAASGYISGYYYRGWYRQAPGKERELVAGIDAFGSSTNYADCVKGRFTISRDNSTNTVYLQMNSLKPEDTAVYYWAARPDGDRLFSYWGQGTQVTVSS	low polyreactivity
QVQLVELGGGLVQAGGSLRLSCAASGRIFTHNAMGWYRQAPGKDRELVAAISYSGVSTYYADSVKGRFTISRDNAKNTVYLQMNSLKPEDTAVYYCARRYWYPDAFYRYDYWGQGTQVTVSS	low polyreactivity
QVQLVESGGGLVQAGGSLRLSCAASGFTFSRYAMGWYRPAPGKERELVAAISTRGGRTYYADSVKGRFTISRDNAKNTVYLQMNSLKPEDTAVYYCAADATVGSSDYWGQGTQVTVSS	high polyreactivity
QVQLVESGGGLVQAGGSLRLSCAASGRTFYTNAMGWYRQAPGKERELVAVISRGGTTYYADSVKGRFTISRDNEKNTVYIQMNSLKPEDTAFYYCAIQSPSGDSSSQMGSWGQGTQVTVSS	low polyreactivity
QVQLVESGGGIVQAGGSLRLSCAASGSTFAANAMGWYRPAPGKERELVAAITSGGGSTYYADSVKGRFTISRDNAKNTVYLQMNSLKPEDTAVYYCNAADWLETQVDLDYWGQGTQVTVSS	low polyreactivity
QVQLVESGGGLVQAGGSLRLSCAASGSTFYRNAMGWYRQAPGKEREFVAAISFRGGGTYADSVKGRFTISRDNAKNTVYLQMNSLKPEDTAVYYCAADYSVYWLDYGYWGQGTQVTVSS	low polyreactivity
QVQLVESGGGLVQAGGSLRLSCAASGRIFSGYAMGSYRQAPGKERELVAAITSVGSTNYADSVKGLFTISRDNAKNTVYLQMNSLKPEDTAVFNCAAKRYRPKYEYYYWGLGTQVTVSS	high polyreactivity
QVQLVESGGGLVQAGGSLRLSCASSGFTLYANAMGWYRQAPGKERELVADISESGSSTSYADSVKGRFTISRDNAKNTVYLQMKSLKPEDTAVYYCYDYWVQGTQVTVSS	low polyreactivity
QVQLVESGGGLVQAGGSLRLSCAASGFIFWLYAMGWYRKAPVKESELVAAISWSDGSTYYADSVKGRFTISRDNAKNSVYLQMNCLKREDTAVYYCNTVRVHGFPIDRIYDYWGQGTQVTVSS	high polyreactivity
QVQLVESGGGLVQAGGSLRLSCAASGRIFRRYAMGWYRQAPGKERELVAAISSTGGNTYYADSVKGRFTISRDNAKNTVYLQMNSLKPEDTAVYYCATRAFYLRGNGYWGQGTQVTVSS	high polyreactivity
QVQLVESGGGLVQEGGSLRLSCAASGRIFYNYPMGWYRQAPGKEREFVAAISGSGGSTYYADSVKGRFTISRDIAKNTVYLQMKSLKPEDTAVYYCSTSGPQYYSRNFDYWGQGTQVTVSS	low polyreactivity
QVQLVESGGGLVQAGGSLRLSCAASGSIFVYYAMGWYRQAPGKERELVAAISSRGGSTYYADSVKGRFTISRDNAKNTVYLQMNSLKPEDTAVYYCAAYTLDGVNGRVLDDYWGQGTQVTVSS	low polyreactivity
QVQLVESGGGLVQAGGSLRLSCAASGRTLKWYAMGWDRQAPGKERELVAAISWSGGSTYYADSVKGRFTISRDNAKNTVYLQMNSLKPEDTSVYYCAVAVTSYSSKKLYYWGQGTQVTVSS	low polyreactivity
QVQLVESGGGLVQAGGSLRLSCAASGIIFYKNAMGWYRQAPGKERELVAAISGSGGRTYYADSVKGRFTISRDNAKKTVYLQMNSLKPEDTAVYYCAARKPYRHGYESWGQGTQVTVSS	high polyreactivity
QVQLVESGGGLVQAGGSLRFSFAASGINFRFNAMGWYRQAPGKEREFVAAITYSGDSTYYADSVKGRFTISRDNAKNTVFLQMNSLKREDTAVYYCAADYYAISRRIFYYWGQGTQVTVSS	low polyreactivity
QVQLVESGGGLVQAGGSLRLSCAASGRIFQHNTMGWYRQAPGKERDFVAAIRRSGGSTYYADSVKGRFTISRDNAKNTVYLQMNSLKPEDTAVYYCAARDYPTGTRRWGGGDSWGQGTEVTVSS	low polyreactivity
QVQLVESGGGIVQAGGSLRLSCAASGRTFRSNVMGWYRQAPGKERELVAAISWRGGNTHYADSVKGRFTISRDNAKNTVYLQMNSLKREDTAVFYCAARVTSRRDPDQIHGYWGQGTQVTVSS	high polyreactivity
QVQLVESGGGLVQAGGSLRLSCAASGSIFISYVMGWYRQAPAKERELVASISWSGGSTYYADSVKGRFTISRDNAKNTVYLQMNSLKPEDTAVYYCAADRLVRIRSYRDLGYWGQGTQVTVSS	high polyreactivity
QVQLVESGGGLVQAGGSLRLSCAASGSIFRTYAMGWYRQAPGKERELVAAISQSGGSTYYADSVKGRFTISRDNAKNTVYLQMNSLKPEDTAVYYCNKYFTRRQSAVSLSPGKFDYWGQGTQVTVSS	high polyreactivity
QVQLVESGGGLVQAGGSLRLSCAASGIIFKYYAMGWYRQAPGKERELVAAISRSSGSTYYADSVKGRFTISRDNAKKTVYLQMNSLKPEDTAVYYCAASGWPQKYDYWGQGTQVTVSS	high polyreactivity
QDQLVESGGCLVQAGGSLRLSCAAYGSTFYRYTMGWYRQAPGKERELVAAISRSGGRTYYADSVKGRFTLSRDNAKNTVFVQINSLKPEDTAVYYCNAEIASSAVQAQEGDYWGQGTQVTVSS	high polyreactivity

Sequence	polyreactivity (PSR sort gate)
QVQLVESGGGLVQAGGSLRLSCAASGSIFAKYAMGWYRQAPGKDREFVAAIRASGGRTYYADSVKGRFTISRDTAKNTVYLQMNSLKPEDSAVYYCNARKYLIPKMDYWGQGTQVTVSS	high polyreactivity
QVQLVESGVGLVKAGVSLRLSSDASARIFPHYAMGWYRQAPGKERELFAPINVDGGRTYYPDSVKGRFTISRDNAKNTVYLQLNILKPEDTAVYYCAAKPFLYHDQDYGYAVEFNYWGQGTQVTVSS	low polyreactivity
QVQLVESGGGLVQAGGSLRLSCAASGRIFGWYAMGWYRQAPGKERELVAAISGRGGSTFYADSVKGRFTISRDNEKNTVYLQMNSLKPEDTAVYYCNAYSWYGYDYWGQGTQVTVSS	high polyreactivity
QVQLVESGGGLVQAGGSLRLSCAASGITFYQYAMGWSRQAPGKERELVAAIRWSGSSTYYADSVKGRFTISRDNAKNTVYLQMNSLKPEDTAVYYCAAAPGGWPGEYWGQGTQVTVSS	low polyreactivity
QVQLVESGGGLVQAGGSLRLSCAASGRIFDRNAMGWYRQAPGKERELVAAISSRGTSTYYADSVKGRFTISRDNAKNTVYLQMNSLKPEDTAVYYCAARPRYASDEFGYWGQGTQVTVSS	low polyreactivity
QVQLVESGGGLVQAGGSLRLSCAASGRILQWYTMGWYRQAPGKERELVAAISGGGGRTYYADSVKGRFTNSRDIAKNTVYLQMNSLKPEDTAVYYCAKRGTGVYRVDYGYWGQGTQVTVSS	high polyreactivity
QVQLVESGGCLVQAGGSLRLSCAASGFIFCGNARGGYIPAPGKERELVAVITRSGGSTYADSVKGRFTISRDNAKNTVYLQMNSLKPEVTAVYYCAADQQTWWQYSLINEYDYWGQGTQVTVSS	low polyreactivity
QVQLEESGGRLVQAGGSLRLSCAASGFIFGWNAMGWYRQAPGKERELVASIRSSGGTTYADSVKGRFTISRDNAKNTVYLEMNSLKPEDTAVYYCSKRDRYKRYDFWGLGTQVTVSS	low polyreactivity
QVQLVESWGGLVQAGGSLRLSCADSGYTFYTNAMGWYREAPGKERELVAAISIGGNTNYADSVKGRFTISRDNAKNTVYLQMNSLKPEDTAVYYCAKAWSGISSRDYDLDYWGQGTQVTVSS	low polyreactivity
QVQHVESGGGLVQAGGSLRLSCAASGITLNSYAMGWYRQAPGTERELVAAISSDGTYYADSVKGRFTISRDNAKNTVYLQMNSLKPEDTAVYYCAAERNHGLVGSESVGRNDYWGQGTQVTVSS	low polyreactivity
QVQLVESGGGLVQAGGSLRLSCAASGITLDYYAMGWYRQAPGKERELVASITSGGSTNYADSVKGRFTISRDNAKNTVYLQMNSLKPVDTAVYYCARDVNYPGSEGDYWGQGTQVTVSS	low polyreactivity
QVQLVESGGGLVQAGGSLRLSCAASGSTFGYNAMGWYRQAPGKERELVAAITRSGGSTDYADSVKGRFTISRDNAKNTVYLQMNSLKPEDTAVYYCAADGDHPWWSQYDYWGQGTQVTVSS	low polyreactivity
QVQLVESGGGLVQAGGSLRLSCSASGSIFPKNAMGWYRQAPGKERELVARISGSGGSTYYADSVKGRFTISRDNAKNTVYLQMNSLKPEDTAVYYCAKDQSKIYSSWSGYYYWGQGTQVTVSS	low polyreactivity
QVQLVESGGGLVQAGGSLRLTCAASGRIFSYNAMGWYRQAPGKERELVAAITGGGSTNYADSVKGRFTISRDNAKNTVFLQMNSLKPEDTAVYYCAARSWSYKYWGQGTQVTVSS	high polyreactivity
QVQLVESGGGLVQAGGSLRLSCAASGLTFGSYAMGWYRQAPGKERELVAAISRSGITYYADSVKGRFTISRDNAKNTVYLQMNSLKPEDTAVYYWAVTQNSKSTKIRPDQGDYGGQGTQVTVSS	high polyreactivity
QVQLVESWGGLVQAGGSLRLSCAASGFTFDNYPMGWYRQAPGKERELVAAIINSGGSTYYADSVKGRFTISRDNAKNTVYLQMNSLKPEDTAVYYCAARILPFRQWYRTYEYWGQGTQVTVSS	high polyreactivity
QVQLVESGGGLVQAGGSLRLSCAASGSTFKYYAMGWYRQAPGKEREFVASINWSGVSTYYADSVKGRFTISRDNAKNTVYLQMNSLKPEDTAVYYCAARVRGKYDYWGQGTQVTVSS	high polyreactivity
QVQLVESGGGLVQAGGSLRLSCAASGFIFRYYAMGWYRQAPGKERELVAAITSRGSSTYYADSVKGRFTISRDNAKNTVYLQMNSLKPEDTAVYYCAARSSATRSWIASRPGYRYNYWGQGTQVTVSS	high polyreactivity
QVQLVESGGGLVQAGGSLRLSCAASGFTFAFYAMGWYRQAPGKERELVAAISWDGVTTYYADSVKGRFTISRDNAKNTVYLQMNSLKPEDTAVYYCNVQWYGGYDYWGQGTQVTVSS	low polyreactivity
QVQLVESGGGLVQAGGSLRLSCAASGRTFGRNAMGWYRQAPGKEREFVAAISRRGDTTYYADSVKGRFTISRDNAKNSVYLQMNSLKPEDTAVYYCNAAVIKDRFSWYYYWGQGTQVTVSS	low polyreactivity
QVQLVESGGGLVQAGGSLRLSCAASGRTFRLYAMGWYRQAPGKERELVARISRGGSTYYADSVKGRFTISRDNAKNTVYLQMNSLKPEDTAVYYCAAEGWGLSHRYDYWGQGTQVTVSS	high polyreactivity
